Data on three substances can be found in patent US10274499B2, “SH2 domain variants” (THE UNIVERSITY OF WESTERN ONTARIO, priority 2012, dated 2019).

In assay [1] the target is T1, EGFR (Homo sapiens, UniProt P00533).
T1 construct: endogenous in cells; host or cells: HEK 293
The assay can be described thus: immunoprecipitation of GFP-fused SH2 domains with EGFR in HEK 293 cells. Format: cell-based. As to conditions: GFP-fusion expressed in HEK 293 cells, EGF 100 ng/ml, anti-GFP and anti-EGFR antibodies. The source says: The three variant SH2 domains mentioned in the previous sentence were dubbed as 8V/10A/15L-substituted SH2 domains, or the TrM SH2 domains, in the following descriptions, as well as in FIG. 11 and FIG. 12. The wild-type (Wt) and TrM SH2 domains, subcloned into the pEGFPC2 vector, were expressed in the HEK 293 cells as a GFP-fusion protein. Methods used in this and the following sections are described below.
Anti-GFP rabbit polyclonal antibody was purchased from Sigma-Aldrich. Anti-EGFR rabbit polyclonal antibody was purchased from Millipore. Anti-p44/42 MAPK (Erk1/2) mouse monoclonal antibody, and anti-phospho-p44/42 MAPK (Thr202/Tyr204) mouse monoclonal antibody were purchased from Cell Signaling. HEK 293 cells were grown in Dulbecco's modification of Eagle's medium (DMEM, Sigma-Aldrich) supplemented with 10% fetal bovine serum (FBS, SAFC Biosciences), 50 units/ml penicillin and 50 μg/ml streptomycin (GIBCO Invitrogen Corp.) in a humidified atmosphere of 5% CO2 in air at 37° C. EGF (Invitrogen) at a final concentration of 100 ng/ml was added to the medium at the indicated time point. Transient transfections were carried out with jet-PEI (PolyPlus-Transfection; Illkirch, France) according to manufacturer's instruction. […]

The test system of assay [2] is seven fluorescein-labeled pTyr-containing peptides. The experiment in a line: in-solution fluorescence polarization binding assay, set of seven peptides. The note with it: average over seven peptides, relative to the wild type of the same SH2 domain. The protocol: Each peptide was synthesized on the TentaGel amide resin (INTAVIS Inc.) and N-terminally labeled with fluorescein using NHS-fluorescein (Thermo Fisher Scientific). Each of the 13 variant and the wild-type SH2 domain was produced by overexpression in the Escherichia coli BL21(DE3) strain cultured in LB media (EMD Chemicals). Expression was induced by 0.3 mM isopropyl β-D-1-thiogalactopyranoside (IPTG), and the cell culture was incubated for 5 hours at 37° C. The cells were harvested by centrifuge, and broken on ice, in buffer solution containing 20 mM sodium phosphate, 0.1 M NaCl, 20 mM imidazole, 1 mg/ml lysozyme and 1% Triton-X 100, adjusted at pH 7.8. Affinity purification was performed with the Ni-NTA agarose resin (Qiagen Inc.), according to the manufacturer's instruction. […] Measurements of fluorescence polarization were conducted by titrating the SH2 domain concentration, while keeping the peptide concentration constant. Kd values were calculated with the GraphPad Prism software, by assuming the one-site binding model (GraphPad Software).
The determined Kd values of interaction between the 14 SH2 domains (including the wild-type) and seven peptides were listed in FIG. 7(a). […]
Fluorescence polarization assay was conducted to determine Kd values of the interaction between the wild-type or variant Src SH2 domain and seven fluorescein-labeled pTyr-containing peptides (FIG. 9a).

For “wild-type Src SH2 domain: human Src SH2 domain between Asp144 and Lys252; SEQ ID NO:18 [reference compound]”, the “binding to EGFR (immunoprecipitation)” value in assay [1] is “did not show detectable binding”. Consider “T8V: variant Fyn SH2 domain, Thr at position 8 to Val; SEQ ID NO:5 (RKDAERQLLSFGNPRGTFLIRESETVKGAYSLSIRDWDDMKGDHVKHYK; Synthetic construct T8V)”, for which the “average affinity increase, Kd[wild-type] divided by Kd[variant]” value in assay [2] is on record as 1.4 fold.

On to “wild-type Grb2 SH2 domain: polypeptide between Met55 and Pro158 of the human Grb2 [reference compound]”, for which the “binding to EGFR (immunoprecipitation)” value in assay [1] is “Weak binding”.
